Read-outs that look alike come from different tables or passages of the source.
Key:
Assay in all cases: cell-based or functional assay
[1] = molecular target: T1, recombinant human TFPI (tissue factor pathway inhibitor) (human, UniProt P10646 29-304)
[2] = molecular target: T1, recombinant human TFPI (tissue factor …); remark: listed apart in the source
[3] = molecular target: T1, recombinant human TFPI (tissue factor …); remark: listed apart in the source
[4] = molecular target: T1, recombinant human TFPI (tissue factor …); remark: listed apart in the source

B1: clone 1 (antibody, V domains shown)
VH: EVQLVESGGGLVKPGGSLRLSCAASGFTFSSYAMNWVRQAPGKGLEWVGTITTGGSYTYYADSVDGRFTISRDNAKNSLYLQMNSLRAEDTAVYYCARQDGNFLMDYWGQGTLVTVSS
VL: DVVMTQTPLSLPVTLGQPASISCKSSPSLLDSDGKTYLNWLQQRPGQSPKRLIYLVSKLDSGVPDRFTGSGSGTDFTLKISRVEAEDVGVYYCWQGTHFPFTFGQGTKVEIKR
FXa assay % of FXa alone, 2.5 nM Ab, 10 nM TFPI [1]: 6.3%
FXa assay % of FXa alone, 5 nM Ab, 10 nM TFPI [1]: 17.1%
FXa assay % of FXa alone, 10 nM Ab, 10 nM TFPI [1]: 50.1%
FXa assay % of FXa alone, 20 nM Ab, 10 nM TFPI [1]: 72%
FXa assay OD, 2.5 nM Ab, 10 nM TFPI [1]: 0.048
FXa assay OD, 5 nM Ab, 10 nM TFPI [1]: 0.131
FXa assay OD, 10 nM Ab, 10 nM TFPI [1]: 0.381
FXa assay OD, 20 nM Ab, 10 nM TFPI [1]: 0.548

B2: clone 7 (antibody, V domains shown)
VH: EVQLVESGGGLVKPGGSLRLSCAASGFTFSSYAMNWVRQAPGKGLEWVGTITTGGSYTYYADSVDGRFTISRDNAKNSLYLQMNSLRAEDTAVYYCARQDGNFLMDYWGQGTLVTVSS
VL: DVVMTQTPLSLPVTLGQPASISCKSSPSLLDVDGKTYLNWLQQRPGQSPKRLIYLVSKLDSGVPDRFTGSGSGTDFTLKISRVEAEDVGVYYCWQGTHFPFTFGQGTKVEIKR
FXa assay % of FXa alone, 2.5 nM Ab, 10 nM TFPI [1]: 8.9%
FXa assay % of FXa alone, 5 nM Ab, 10 nM TFPI [1]: 31%
FXa assay % of FXa alone, 10 nM Ab, 10 nM TFPI [1]: 72.1%
FXa assay % of FXa alone, 20 nM Ab, 10 nM TFPI [1]: 75.4%
FXa assay OD, 2.5 nM Ab, 10 nM TFPI [1]: 0.0675
FXa assay OD, 5 nM Ab, 10 nM TFPI [1]: 0.236
FXa assay OD, 10 nM Ab, 10 nM TFPI [1]: 0.549
FXa assay OD, 20 nM Ab, 10 nM TFPI [1]: 0.574

B3: clone 1224 (antibody, V domains shown)
VH: EVQLVESGGGLVKPGGSLRLSCAASGFTFSSYAMSWVRQAPGKGLEWVSTITTGGSYTYYADSVDGRFTISRDNAKNSLYLQMNSLRAEDTAVYYCARQDGNFLMDYWGQGTLVTVSS
VL: DVVMTQTPLSLPVTLGQPASISCKSSQSLLDIDGKTYLNWLQQRPGQSPKRLIYLVSKLDSGVPDRFTGSGSGTDFTLKISRVEAEDVGVYYCWQGTHFPFTFGQGTKVEIKR
FXa assay % of FXa alone, 2.5 nM Ab, 10 nM TFPI [2]: 5.1%
FXa assay % of FXa alone, 5 nM Ab, 10 nM TFPI [2]: 6.9%
FXa assay % of FXa alone, 10 nM Ab, 10 nM TFPI [2]: 29%
FXa assay % of FXa alone, 20 nM Ab, 10 nM TFPI [2]: 66.1%
FXa assay OD, 5 nM Ab, 10 nM TFPI [2]: 0.06
FXa assay OD, 10 nM Ab, 10 nM TFPI [2]: 0.252
FXa assay OD, 20 nM Ab, 10 nM TFPI [2]: 0.576

B4: clone 1024 (antibody, V domains shown)
VH: EVQLVESGGGLVKPGGSLRLSCAASGFTFSSYAMSWVRQAPGKGLEWVSTITTGGSYTYYADSVDGRFTISRDNAKNSLYLQMNSLRAEDTAVYYCARQDGNFLMDYWGQGTLVTVSS
VL: DVVMTQTPLSLPVTLGQPASISCKSSQSLLDLDGKTYLNWLQQRPGQSPKRLIYLVSKLDSGVPDRFTGSGSGTDFTLKISRVEAEDVGVYYCWQGTHFPFTFGQGTKVEIKR
FXa assay % of FXa alone, 2.5 nM Ab, 10 nM TFPI [3]: 4.6%
FXa assay % of FXa alone, 5 nM Ab, 10 nM TFPI [3]: 6.2%
FXa assay % of FXa alone, 10 nM Ab, 10 nM TFPI [3]: 20.4%
FXa assay % of FXa alone, 20 nM Ab, 10 nM TFPI [3]: 42.7%
FXa assay OD, 2.5 nM Ab, 10 nM TFPI [3]: 0.0225
FXa assay OD, 5 nM Ab, 10 nM TFPI [3]: 0.03
FXa assay OD, 10 nM Ab, 10 nM TFPI [3]: 0.0985
FXa assay OD, 20 nM Ab, 10 nM TFPI [3]: 0.206

B5: clone 4206 (antibody, V domains shown)
VH: EVQLVESGGGLVKPGGSLRLSCAASGFTFSSYAMNWVRQAPGKGLEWVSTITTGGSHTYYADSVEGRFTISRDNAKNSLYLQMDSLRAEDTAVYYCARQDGNFLMDYWGQGTLVTVSS
VL: DVVMTQTPLSLPVTLGQPASISCKSSQSLLDVDGKTYLNWLQQRPGQSPKRLIYLVSKLDSGVPDRFTGSGSGTDFTLKISRVEAEDVGVYYCWQGTHLPFTFGQGTKVEIKR
FXa assay % of FXa alone, 2.5 nM Ab, 10 nM TFPI [4]: 4.7%
FXa assay % of FXa alone, 5 nM Ab, 10 nM TFPI [4]: 6.1%
FXa assay % of FXa alone, 10 nM Ab, 10 nM TFPI [4]: 7.1%
FXa assay % of FXa alone, 20 nM Ab, 10 nM TFPI [4]: 38.6%
FXa assay OD, 2.5 nM Ab, 10 nM TFPI [4]: 0.038
FXa assay OD, 20 nM Ab, 10 nM TFPI [4]: 0.314

B6: clone 1234 (antibody, V domains shown)
VH: EVQLVESGGGLVKPGGSLRLSCAASGFTFSSYAMNWVRQAPGKGLEWVSTITTGGSYTYYADSVQGRFTISRDNAKNSLYLQMNSLRAEDTAVYYCARQDGNFLMDYWGQGTLVTVSS
VL: DVVMTQTPLSLPVTLGQPASISCKSSQSLLDIDGKTYLNWLQQRPGQSPKRLIYLVSKLDSGVPDRFTGSGSGTDFTLEISRVEAEDVGVYYCWQGTHFPFTFGQGTKVEIKR
FXa assay % of FXa alone, 2.5 nM Ab, 10 nM TFPI [2]: 3.8%
FXa assay % of FXa alone, 5 nM Ab, 10 nM TFPI [2]: 3.6%
FXa assay % of FXa alone, 10 nM Ab, 10 nM TFPI [2]: 4.5%
FXa assay % of FXa alone, 20 nM Ab, 10 nM TFPI [2]: 4%
